Biological target: N-utilization substance (Nus) G, Escherichia coli (E. coli) (UniProt P0AFG0)
Test: cryo-EM structure

UniProt P0AFG0, sequence (P0AFG0 whole entry): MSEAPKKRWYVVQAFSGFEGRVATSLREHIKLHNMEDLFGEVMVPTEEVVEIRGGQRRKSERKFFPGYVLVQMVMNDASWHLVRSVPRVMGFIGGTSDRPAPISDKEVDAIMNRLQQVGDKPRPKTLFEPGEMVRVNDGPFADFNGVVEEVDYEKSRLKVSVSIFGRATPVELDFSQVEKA

percent of particles with extra density at S10: 5% | stoichiometry N: 1
Substance: 70S ribosome (E. coli), intact (from UniProt P0A7R5 5-102) (complex)
